Molecular target: murine DEC-205 (mouse) (UniProt Q60767)
Test: Alexa488-conjugated antibody (10 µg) injected s.c.; flow cytometry of CD11c+ cells

Sequence of UniProt Q60767 (Q60767 28-1723 S1283P limits assumed): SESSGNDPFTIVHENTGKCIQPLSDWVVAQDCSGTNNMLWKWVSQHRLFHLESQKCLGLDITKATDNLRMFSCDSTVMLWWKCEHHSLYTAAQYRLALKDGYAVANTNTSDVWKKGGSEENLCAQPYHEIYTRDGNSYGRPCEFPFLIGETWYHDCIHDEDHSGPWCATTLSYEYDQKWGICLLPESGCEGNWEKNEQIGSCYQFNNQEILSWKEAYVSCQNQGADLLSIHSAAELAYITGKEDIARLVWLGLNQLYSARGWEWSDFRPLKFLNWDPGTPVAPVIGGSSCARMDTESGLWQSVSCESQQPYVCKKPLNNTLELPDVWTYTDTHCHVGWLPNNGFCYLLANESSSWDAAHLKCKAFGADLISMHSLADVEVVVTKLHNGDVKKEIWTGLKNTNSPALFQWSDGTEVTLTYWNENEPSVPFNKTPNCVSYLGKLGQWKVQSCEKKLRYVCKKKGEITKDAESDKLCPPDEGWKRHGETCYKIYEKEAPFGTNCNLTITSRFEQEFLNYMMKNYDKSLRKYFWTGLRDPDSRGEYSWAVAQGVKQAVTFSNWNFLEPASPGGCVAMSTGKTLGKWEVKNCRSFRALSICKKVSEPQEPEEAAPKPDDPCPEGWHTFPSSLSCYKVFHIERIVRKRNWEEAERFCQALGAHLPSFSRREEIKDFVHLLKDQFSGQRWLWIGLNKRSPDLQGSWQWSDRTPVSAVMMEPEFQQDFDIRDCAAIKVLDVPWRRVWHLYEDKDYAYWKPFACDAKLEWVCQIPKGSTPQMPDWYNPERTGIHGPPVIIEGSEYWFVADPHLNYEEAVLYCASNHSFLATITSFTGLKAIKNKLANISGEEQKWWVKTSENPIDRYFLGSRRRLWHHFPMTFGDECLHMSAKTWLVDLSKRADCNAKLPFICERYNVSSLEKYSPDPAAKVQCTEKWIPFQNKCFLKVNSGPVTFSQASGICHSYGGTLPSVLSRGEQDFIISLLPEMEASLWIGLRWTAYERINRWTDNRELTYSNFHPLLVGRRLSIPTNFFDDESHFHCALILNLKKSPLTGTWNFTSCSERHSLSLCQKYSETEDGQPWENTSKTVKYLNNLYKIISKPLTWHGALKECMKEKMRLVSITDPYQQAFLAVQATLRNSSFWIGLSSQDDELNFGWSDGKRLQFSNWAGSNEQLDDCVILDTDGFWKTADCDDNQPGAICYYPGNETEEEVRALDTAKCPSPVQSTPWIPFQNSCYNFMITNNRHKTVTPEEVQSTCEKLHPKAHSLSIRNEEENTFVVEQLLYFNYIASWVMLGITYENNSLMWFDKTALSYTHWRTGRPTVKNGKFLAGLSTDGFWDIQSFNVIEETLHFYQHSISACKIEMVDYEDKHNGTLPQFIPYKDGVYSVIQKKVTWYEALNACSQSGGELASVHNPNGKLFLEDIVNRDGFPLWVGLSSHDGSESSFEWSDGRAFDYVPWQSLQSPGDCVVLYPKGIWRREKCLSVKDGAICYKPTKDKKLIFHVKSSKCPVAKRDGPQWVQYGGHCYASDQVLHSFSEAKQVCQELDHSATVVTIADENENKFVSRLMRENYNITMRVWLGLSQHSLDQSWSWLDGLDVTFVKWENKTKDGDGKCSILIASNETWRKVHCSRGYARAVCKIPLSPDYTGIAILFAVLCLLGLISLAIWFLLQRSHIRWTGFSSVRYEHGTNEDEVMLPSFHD

percent of distal lymph node DCs loaded with injected antibody at 6 hrs: 40%
percent of draining lymph node DCs loaded with injected antibody at 6 hrs: > 50%
percent of spleen DCs loaded with injected antibody at 6 hrs: 30%
Substance: NLDC-145 monoclonal antibody to DEC-205

From patent US20040258688A1
